55 substances from the supplement of paper PMC12042874 can be followed below.

± gives the uncertainty stated by the source.

The nature of this data set: amyloid nucleation score (Sup35N fusion, yeast selection) (log enrichment); library NNK3; higher = more nucleation; inactive = no reads after selection. The gist of the method:
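Three technical output replicates were used for random libraries. Psi-negative yeast expressing peptides of 20 random codons fused to Sup35N were induced with 100 μM copper sulfate for 24 hours and grown 7 days at 30°C on medium lacking adenine and uracil, and input and output plasmid inserts were Illumina-sequenced, excluding sequences with under 100 input reads. The nucleation score is the DiMSum log enrichment of output over input reads, centred on the mode score of non-aggregating sequences.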
On to IPVGIRSRFVLYSCGMTGVK, for which the amyloid nucleation score result is “inactive”. In the case of GVKVSDMSPDRDNLWFSRCS, the amyloid nucleation score entry was “inactive”. Turning to CFCFARFKFR, the amyloid nucleation score was determined as 2.19 ± 0.071. For the substance SRVHEVLNFCTY, the amyloid nucleation score result is “inactive”.

On to RGSMRPPSVSQMQCRYKDRF, for which the amyloid nucleation score was -0.663 ± 1.1. The value for DGARLCSAAMLAGQGLDEDG was “inactive”; that for ADLRIRSSSCRPSADINFG was “inactive”. With FSLFFLCIFFDNRTKFMCLA, the amyloid nucleation score entry was “inactive”. As for SSLSDSDGSFLDIMGAYYWA, the entry is “inactive”.

For the substance SVCSCNAKYARIGMMLFLLG, the amyloid nucleation score was determined as 1.16 ± 0.075. With LIIMNVKSSSSHKRAGVST, the amyloid nucleation score result was “inactive”. Take LCRGCSLGACGNSGLKYCGW: the amyloid nucleation score entry is “inactive”. As for IMFSILSVMML, the figure is 1.74 ± 0.11. As for DYKKVGDSLFTVFVFRFINV, the entry is “inactive”. The substance VWQYNDGSYCVVMYVSSSDY had an amyloid nucleation score of 1.06 ± 0.19.

As for FDPYFVFHNWVLYWFRVFTF, the amyloid nucleation score entry is “inactive”. Take VKSFVSFCSGTLSPLMFRSG: the amyloid nucleation score stood at 0.535 ± 0.19. VICLLPLT came in with an amyloid nucleation score of 0.099 ± 0.3. On to NIWRMYEIRSVSGKKLRVDI, for which the amyloid nucleation score result is “inactive”. The value for PWLLVIIVLFGLYCRM was “inactive”; that for TLFADNAVQIVLERSLRGCG was “inactive”. As for KITSRGCN, the entry is “inactive”; as for YNCRTLNCNYQVYYFVFLSD, 3.15 ± 0.062.

On to MDLYMTSWEFTVLSLEKMGR, for which the amyloid nucleation score entry is “inactive”. KILRRNTWNMFPAALCGVSF: the amyloid nucleation score was 0.997 ± 0.21.

As to CDFIHCLVCFLPIWKSCGTE, the amyloid nucleation score was found to be 0.732 ± 0.34.

Consider DCFDFIEETGTNKAFRVWGI, for which the amyloid nucleation score amounted to 0.283 ± 0.24. Consider DISSFGHFSMSFFNRIIKGA, for which the amyloid nucleation score result is “inactive”. As for STPSLGTSF, the entry is “inactive”; as for AKDMEGGQHNDGSDRRNERW, “inactive”; as for VNFSYNYVGWCFMQLCSAAN, 1.74 ± 0.086. Turning to HFNRVLVPYAFSFIGKMEWF, the amyloid nucleation score result is “inactive”. The value for VLPNIQFFYCMCWVMLYLPF was “inactive”. Turning to YAMCIISIAFPLTL, the amyloid nucleation score entry is “inactive”.

For KISISD, the amyloid nucleation score result is “inactive”. Consider DSNLRLYALTRCHKALHVMS, for which the amyloid nucleation score entry is “inactive”. VGLFASPDRRYRMIAFVPGL: the amyloid nucleation score entry is “inactive”. As for GGAKVLTV, the entry is “inactive”; as for KGEDPPHCSTEIPCMSRQLL, “inactive”. The value for YIVST was “inactive”; that for CVTINVIFDNVVY was 2.3 ± 0.061; that for RKSGYFP was “inactive”.

Regarding RCLGLML, the amyloid nucleation score entry is “inactive”. The value for LYAYVQVIGDQA was “inactive”; that for CRQWCDWCTGSYPGYCFQC was “inactive”. As for RMIRNIFGSHAVLCFGCKC, the figure is 2.9 ± 0.068; as for SFQAWVYFVSRLFLECFSSR, “inactive”; as for PQDRFSE, 1.29 ± 0.14.

For the substance NSIAYMVWILALDCCNWGSQ, the amyloid nucleation score came out at 2.85 ± 0.07. As for NRRVCYSLISMGIVLVCRYG, the figure is 0.306 ± 0.22. As to PTKMCCLFTVIF, the amyloid nucleation score was determined as 2.13 ± 0.069. The value for YYGLAVWSERNVRWMGEGEA was “inactive”; that for MLFYCN was “inactive”; that for DPVIYRCSLVLLYSERSLPY was “inactive”. As for CSGDD, the entry is “inactive”.
